A protein production outcome set (Wang et al. 2014)

Assay: label from the status in PepcDB records
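Note: failed if final PepcDB status was selected cloned or expressed and not failed if soluble or beyond.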

Row | Sequence | protein production
1 | MSGKRALITGIRGQDGAYLAKLLLEKGYEVYGADRRSGEFASWRLKELGIENDVKIIHMDLLEFSNIIRTIEKVQPDEVYNLAAQSFVGVSFEQPILTAEVDAIGVLRILEALRTVKPDTKFYQASTSEMFGKVQEIPQTEKTPFYPRSPYAVAKLFGHWITVNYREAYNMFACSGILFNHESPLRGIEFVTRKITYSLARIKYGLQDKLVLGNLNAKRDWGYAPEYVEAMWLMMQQPEPDDYVIATGETHTVREFVEKAAKIAGFDIEWVGEGINEKGIDRNTGKVIVEVSEEFFRPAEVDILVGNPEKAMKKLGWKPRTTFDELVEIMMEADLKRVRDREVSV | not failed
2 | MTSGVAPLPGIVSTLSAAAEAVSEALIALDADGGILVVNGAAERVFDRRRDDLIGRSLDVVFGGDFAEAMASNLSAKVDALPPAPGGGRLLRRPGLPPLALHAGFSVTGDHGRPLATIVIRDLSPRADSWLETEERLGGFAASMPGIIFQRVAHRDGSLSYPFLSSGVHAVLGYHPAEMSVALDGCLNAIHWADRESYLRRLRQSAQTLAICSEEFRAITREGAVKWLSGASQPRAMANGDILWDGVLVDVTERKRAELWLEMIMDRAADGIVTINEQGVIESANAAVGTFFGYADRGELIGRRVEILMAEADRRQHTRHMLRYRETGDGALIGAGPRELTGRRRDGTTFALELALSEVRTEGRRIFIAVIRDITQRKETEGALAATRARLQTIADNVPGLVFQRELTAEGVLRFLFVSNGVHEVLGITPEALLADGELFLGAMDPDVRAAFRETLRQSASRLEPMEEDIKLRGRDGEERWLRGWSRPSRREDGSVVWDGVTLDVTDRKRAEDKLTFLAYYDPLTGLGNRSLFIDRFDRARRFAESIQAWVAVLSIGLDRFGMVNATIGHTMGDKVLIAVTRRLQQSLEAGSIVCRAGGDRFLVLLTGLTDRADLREVVATIQDAFVPPIEVEGQQFDIGLTIGGALHPEDGREAETLIMHADAALHRAKGGGGAFQMFTPEMGARAAHLLTIQHKLRRGLERHEFVAYFQPQVDLRSGLITGCEALARWNSPEDGLVPPGKFIGVAEEYGLIDAICGQVLDDSCRWLSTWRARGLPQVPVAVNISGRQFQNARQLVAMVDQALRQSGVDPRLLELELTESSAMSDPENAIAVVNLLRERGVSCAIDDFGTGYSSLSVLKRFPIGKLKIDRSFVMDVTTDPNDAAIVQAIIAMAHALNLRVVAEGVETLDHLAFLREVHCDAVQGFLFARPLPGEDMALMLAGGPPQPNPR | failed
3 | GKPKTDTDFQTYNGDGFKLQIPSKWNPNKEVEYPGQVLRFEDNFDATSNVIVAITPTDKKSITDFGSPEQFLSQVDYLLGRQAYSGKTDSEGGFESDAVAIANVLETSTAEVGGKQYYYLSILTRTADGNEGGKHQLVTATVNDGKLYICKAQAGDKRWFKGAKKFVENTATSFSLA | not failed
4 | MRVDRSSSSSTVSLLEGKIYVAGGFDPKTHTWSSVTSPSAVIRNESVAEHKSLGLGGKFYLFGYDSDKSAVVYNPKEDNVLFYRFHGLFHWYDYKGNFWKQVNGLGPVACTEKVAILAALDTFDNAR | failed
5 | MAKSGSLSIRVVEGRALPAKDVSGSSDPYCLVKVDDEVVARTATIWRSLSPFWGEEYTVHLPLDFHHLAFYVLDEDTVGHDDIIGKISLSKEAITADPRGIDSWINLSRVDPDEEVQGEVCLAVKLLEDARGRCLRCHVRQARDLAPRDISGTSDPFARVFWGSRSLETSTIKKTRFPHWDEVLELREAPGTTSPLRVELWDWDMVGKNDFLGMVEFTPQTLQQKPPNGWFRLLPFPRAEDSGGSLGALRLKVRLTEDRVLPSQYYQPLMELLLESVQGPAEEDTTSPLALLEELASGDCRQDLATKLVKLFLGRGLAGPFLDYLTRREVARTNDPNTLFRSNSLASKSMEQFMKLVGMRYLHEVLRPVISRVFEEKKYMELDPSKMDLNRSRRISFKGTPTEEQVRETSLGLLTGYLGSVVDAIVSSAGRCPLALRLAFKQLQQCVEKRFPGMEHQVGWVLRGLMRIRLKAPCVQCSRCIDXRNRIWGHRRCLPHGELGLLSPLLQAVQSIGNLGQQLGQGKEQWLAPLHPFLLQSISRVRDFLDQLVDVDGDEEAGFPLTKLMECRGVTKEGRVGXGRWSTSXFPAFRRERQERPGGLCCSERSAAWSWRLRLTGRDIAGLTGQWHAVPGRPQVHSSIPLSCIRAVERVDEGAFQLPHVMQVVTQDGTGASHTTYLQCKNVNDLNQWLSALRKASAPNPGKLAACHPGAFRSGRWTCCLQAERSAALSFHLGVLCNLEHVTXFLCASVFSSGKWSSPLDPKAGGAALYLRNQFCLSLSTLRLKLLEDSSLDTAPDVDPGKDSSAVDGPCAEVLAQQREATTRLLQVLEDLEQAHEEFQKRG | failed
6 | MSHEVDELFDAEMLQQAKTLSAFMSVNSERLPEAGVIIESIGAHNYEDKLSYRIENTEELLLMQTEGAPDASAFEFIPGFSVKRVKDELWHAFGLENATGQRILMLQEDGFRSELRMDLTVDTVIPILLILPFMLWLGWWTINRNFSSFNRLAGELRRKRADDYTNFVEDNDREEVALVKRSLNHYINRIEQTFLREKRFSADAAHELRTPLASLKAQIQSRLGSATSEQQNELQPLLDSTERLVKLVESLLQLSKAELPPEQLKQVNVASVLRQVLADQYVAAESKGLSYHAQLPTVFQQTSDESYLYLLFANALDNAIKYAVPGSHIGIEVTENQIFVCNRVAADHVIDIDRITERFYRGKQLDVEGSGLGLSIVRNLAEQLGVQINFRHIDDEFCFIVTFDTDQ | failed
7 | MENEKLPYISVIIIAYNRKEFLLDAIKSALNQTLDREYYEIIVIKNFQDDTIDNFIKENNIKGIISENKSLGGKISEALYVSKGEIVSFLEDDDLFFPNKLREVYDIFISNPNLVYYHNNFIKTNNRLFEIDYSENKKNKKIFLKLIELNNIKTINYLISKKLIAFNMSAITIRKSYFNDCLDILENIRIAHDMCFFFCLSGKSDTSKEILIYDKPLSIWFIHNSWSNTSCDLEIKNFKNKNFTIAKETLNAIVYIFNEFCIKNNLYNFYDNKQPLCDYLKLTISARKSQLYLLNEYEININDIKLFFKFVTMRKSIYLSGAFILVLFGKFISKKLSTKIFLYISFLLNTI | failed
8 | RRRAPLARLRQAIQRCEFFVCYQPIVSLSDGRCVGAEALVRWRQQDGTLILPDQFIPLAERSGLILPITDQVIAASMRELGPLLVADRSLHIAINVSVKDIESGRLLDVLALALQDTGLYRKQLWIEATERSFMDARAAREHIVRLREAGYAVVIDDFGTGYSNLQYLQQLPLDALKIDKSFIDTVGRDVTNTAVASHIIDIAKELGMRTIAEGVEREEQLVYLRARGVDMAQGWLFSSPLSVAEFVDYLSHNRSMHPDD | failed
9 | MKIRKLTNEEIKGACAFAVNIYNIAIRGCFRTLDCHRYFDEYMDADRLTDEERTGALVVFGAFDSNVLCGVCGMTNEGHITMLYVHPQYLRRGIGKKLLERVRIYARMQLKLMQVSVNAMPAYTAEYFMHVGFKSAYQGGFCNGQGDMYVPMTAKSIYQVEYTPRHIADKTFIAISVGFTCLVFVSGVIYAVCAGLTP | failed
10 | DYPIMIICPGGGFTYHSGREEAPIATRMMAAGMHTVVLNYQLIVGDQSVYPWALQQLGATIDWITTQASAHHVDCQRIILAGFSAGGHVVATYNGVATQPELRTRYHLDHYQGQHAAIILGYPVIDLTAGFPTTSAARNQITTDARLWAAQRLVTPASKPAFVWQTATDESVPPINSLKYVQAMLQHQVATAYHLFGSGIHGLALANHVTQKPGKDKYLNDQAAIWPQLALRWLQE | failed
11 | MSGFSMKRVSQMTALAMALGLACASSWAAELAKPLTLDQLQQQNGKAIDTRPSAFYNGWPQTLNGPSGHELAALNLSASWLDKMSTEQLNAWIKQHNLKTDAPVALYGNDKDVDAVKTRLQKAGLTHISILSDALSEPSRLQKLPHFEQLVYPQWLHDLQQGKEVTAKPAGDWKVIEAAWGAPKLYLISHIPGADYIDTNEVESEPLWNKVSDEQLKAMLAKHGIRHDTTVILYGRDVYAAARVAQIMLYAGVKDVRLLDGGWQTWSDAGLPVERGTPPKVKAEPDFGVKIPAQPQLMLDMEQARGLLHRQDASLVSIRSWPEFIGTTSGYSYIKPKGEIAGARWGHAGSDSTHMEDFHNPDGTMRSADDITAMWKAWNIKPEQQVSFYCGTGWRASETFMYARAMGWKNVSVYDGGWYEWSSDPKNPVATGERGPDSSK | failed
12 | MTLDTAAGHPTMDFADRCPLPYTSPTHLQAVAYLHGIVAADPDRARVLELGCMSGANLLPFATAYPQAQAVGIDLDEEKIAQGQMWVQQYGLTNLQLQAMDLGSLLDSDLGKFDYIIVHGVFGLISGEARSALLAYCHRHLSAKGVVCFSYSTYPGGKTEEILQDALNLHASLAETPEQQQASARAMLSYLSLGMSADNPQRAAITTLVEEAEKLGDVSLALNYLQGLNQPCYLLDFNALIAQEGLSYVGEIEPHTEIASHYGEQVDSLLRAICPTGNKVLKQQYLDFNVGRKRRFSLLVATERAGKLESEIDISRLDKLSWAGSFRRVMLNKGLASNAHVTNAGIQISTDHELTQQILDVLGNAWPASVSFKQLIFNTHFPEKENDKQEHENNIRESLYALLKQGISSIHFCVGECAYRKSEFSALRALPNCGDIYPTFNYWYESFTLPSEALGLKIPMSLLEEQKEGSLALLDELHHKGLMIGSALAWQRYFQKRLELAKDVNDVIHSINPLIMYSSNASGGGLFKASDVIKVEKSRKEFVNDPIDAKFKGQLYDLLQKQKYDEARSLAEELTVKQPNNLQNWIALERINFVTGDKDAAIFSLAKVISMHSNAWLVYSELASLLHNTYNYWEAINLAYRVIRCDGNIAVAWNVVALVYLKFENMAGAEVCIEKAMKLLPNDAAILNAMAMVLDKKSDVESAIEYYRQAVSNAPEDLSLYSNLLFALLHNAKIPASEIFAEHLLYGDVVEKRNGALAPVRYLQNKDPDRVLRIGFVSGDLYSHPVSKFLSPVWNDIDHQHFSLYAYSTSHHHDDVTRMLEKNSTVWRNVASSSDTELFDLIKRDEIDILFDLSGHTGDNRLSMFAMKPAPIQISWIGYPGTTGLKAMDYYLVMNHAPYPEVLAHQFTEKLLYVLFDRQFEPVVNGPEVNDLPALTNGYLTFASFNRPTKINDTVLSAWGKILVQLPTSKMIIGALPSLQTRDLIRKKLESQGVQPEQLIFRERVNIMNYLAMHQEIDVLLDTFPYTGGTTTNYALWMGVPTLTLAGETYAARQGVVNLGQAGLNEFIAHSEADYIDKAISCNNRLDELNQIRHSLRKKMEYDIDTSDATAATYFEQALRTVWKAYCDGQPPKSYSIGH | failed
13 | MYLISELAVKAGLSRTTLLYYEKLGLIRGQRLDNGYRYYNESDLQQLFLIQQLQSAGLSLKECEECLQAKLDRTLLERRLSQLDDEIEKKVRARELLLALLGERPQRELHHSLSKHAPNAYLSWLNTQGYSEKEALRLKWLSKDMNEHDIYMQDFMTVFASLQHWGPGSEQDSLKAISLMSMQNMQHILDIGCETGLSTLLLAENSSAHITAVDNEPIAIEQLEKQRQHSPWKEQISPVLGSMTALPFAAKSFDAIWAEGCVYIMGMENALKQWKPFLADNAILMVSDLVWLTENPKPEAQEFWQSEYPDIQSIPSRIKLFKKLGYEVMEHFSLGIDAWQNYWLPLQNRVQELKLRLTNSQALSDIEKEIAIYERSAAKDFTYQYFVLKLNH | failed
14 | MKKTTLVLSALALSIGFAMGPVSSVVAAETAASSSQQLPSLAPMLEKVMPSVVSINVEGSAPVSSAGARGMPPQFQQFFGDNSPFCQDGSPFQGSPMCQGDLGGLGQGMPSKREFRSLGSGVIIDAGKGYVVTNNHVVDNANKISVKLSDGRSFDAKVIGKDPRTDIALLQLKDAKNLTAIKIANSDQLRVGDYTVAIGNPYGLGETVTSGIVSALGRSGLNVENYENFIQTDAAINRGNSGGALINLNGELIGINTAILAPDGGNIGIGFAIPSNMVKNLTSQMVEFGQVKRGELGIMGTELNSELAKAMKVDAQKGAFISQVVPKSAAAKAGIKAGDIIVSMNGKAINSFAGFRAEIGTLPVGSKMTLGLLRDGKPINVDVVLEQSSHSQVESGNLYTGIEGAELSNSDVSGKKGVKVDSVKPGTAAARIGLKKGDIIMGINQQPVQNLGELRKILDAKPPVLALNIQRGDTSLYLLMQ | failed
